Experimental data: publication PMC8233713, “Direct Interaction of Polar Scaffolding Protein Wag31 with Nucleoid-Associated Protein Rv3852 Regulates Its Polar Localization” (Cells, 2021)

T1: Wag31 (recombinant, from Wag31-pet28a) (Mycobacterium tuberculosis, UniProt P9WMU1 1-260)
T1 sequence: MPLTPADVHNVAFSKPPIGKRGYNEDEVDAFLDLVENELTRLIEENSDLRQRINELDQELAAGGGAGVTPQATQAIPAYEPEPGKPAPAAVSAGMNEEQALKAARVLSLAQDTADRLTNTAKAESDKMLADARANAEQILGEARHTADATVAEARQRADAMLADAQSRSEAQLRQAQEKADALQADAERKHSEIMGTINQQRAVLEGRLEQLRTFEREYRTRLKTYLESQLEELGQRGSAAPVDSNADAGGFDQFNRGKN

B1: 6X His-tagged Rv3852 protein (natural protein)
chain: MPDPQDRPDSEPSDASTPPAKKLPAKKAAKKAPARKTPAKKAPAKKTPAKGAKSAPPKPAEAPVSLQQRIETNGQLAAAAKDAAAQAKSTVEGANDALARNASVPAPSHSPVPLIVAVTLSLLALLLIRQLRRR
notes: also called hexa-histidine tagged Rv3852
B2: Rv3852-MBP (natural protein)
chain: B1 chain

Experiments:
[1] = molecular target: T1, Wag31 (recombinant, from Wag31-pet28a); assay: co-IP; settings: both partners purified
[2] = molecular target: T1, Wag31 (recombinant, from Wag31-pet28a); assay: pull-down; settings: both partners purified

| Binder | binding result [1] | binding result [2] |
| --- | --- | --- |
| B1 | binds | – |
| B2 | – | binds |
